This is an account of results in paper PMC7935881.

A word on the stoichiometry N: it is the number of molecules, sites or subunits per partner or assembly.

In experiment [1] the target is no-cys-DgkA (cysteine-free Escherichia coli diacylglycerol kinase) (Escherichia coli). As to the kind of experiment: SDS-PAGE; DgkA refolded/reassembled in buffer (8 M urea, 0.2% SDS, 0.08% E. coli membrane total extracts, 0.96% OG, pH 7.8).
For experiment [2] the target is unchanged. As to the kind of experiment: solid-state NMR structure; MAS ssNMR, intra- and inter-monomer PRE distance restraints with CS-Rosetta; DgkA reconstituted in bilayers of E. coli membrane total extracts; 272 K.

With “no-cys-DgkA (cysteine-free Escherichia coli diacylglycerol kinase) (enzyme)”, the stoichiometry N in experiment [1] and in experiment [2] was 3 throughout.
